T1: HMGB2 (Homo sapiens, UniProt P26583 1-209)
T1 sequence: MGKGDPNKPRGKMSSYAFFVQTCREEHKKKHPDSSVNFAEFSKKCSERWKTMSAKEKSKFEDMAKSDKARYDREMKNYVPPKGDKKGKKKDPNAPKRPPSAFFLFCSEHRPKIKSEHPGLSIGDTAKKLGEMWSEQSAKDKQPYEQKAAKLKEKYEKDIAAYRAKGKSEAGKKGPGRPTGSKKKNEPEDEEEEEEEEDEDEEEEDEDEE

T2: HMGN1 (Homo sapiens, UniProt P05114 1-100)
T2 sequence: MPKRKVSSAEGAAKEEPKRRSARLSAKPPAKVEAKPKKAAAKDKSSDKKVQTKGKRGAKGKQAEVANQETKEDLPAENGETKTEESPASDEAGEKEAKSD

B1: B2-M6 (structured_DNA)
DNA: GGGAGAGGGAGAGGGAGAGGG
B2: B2-M7 (structured_DNA)
DNA: GGGCCCTGGGAACGGGGAGGG
B3: N1C-3 (N1-C3) (structured_DNA)
DNA: GGGGAGGGGGAGGGGGGAGGGAGGGGAGG
B4: CT1 (G4-2) (structured_DNA)
DNA: GGTGACAGGGGTATGGGGAGGGG

Columns and labels:
HMGB2 = target: T1, HMGB2; experiment: MST; MST, 50 nM labelled protein, 0.61 nM-20 uM oligo, 140 mM potassium phosphate pH 7.2 (6.7 for i-motif N1-3; CTCF oligo CD at pH 6.7), 10 mM NaCl in oligo stocks, 22 C; details: protein: commercial; tags: His; mixed-topology G4
HMGN1 [1] = target: T2, HMGN1; experiment: as above; details: protein: commercial; tags: His; parallel G4, partly intermolecular
HMGN1 [2] = target: T2, HMGN1; experiment: MST; positive control; MST, 50 nM labelled protein, 0.61 nM-20 uM oligo, 140 mM potassium phosphate pH 7.2 (6.7 for i-motif N1-3; CTCF oligo CD at pH 6.7), 10 mM NaCl in oligo stocks, 22 C; details: protein: commercial; tags: His; parallel G4

Binder | Kd (HMGB2) [nM] | further results
B1 | 4000 ± 2000 | 
B2 | 1600 ± 600 | 
B3 |  | Kd (HMGN1 [1]): 200 ± 100 nM
B4 |  | Kd (HMGN1 [2]): 1600 ± 300 nM

Reference: article PMC8269367, “DNA G-Quadruplexes Contribute to CTCF Recruitment”
